Test results published in patent publication US20200095333A1.

Target: human serum albumin (HSA) (human) (UniProt P02768)
Assay: HSA binding class, Table 23

In the case of “ABD L64G/I65A/V71A (from UniProt P19909 254-299)”, the HSA binding is reported as < 0.1.
